Laboratory results published in US20190002527A1 (CHILDREN S MEDICAL CENTER, published 2019).
Each block holds one binder with its values, some of them ahead of it.

Tests used:
[1] = target: T1, TRPV4 (transient receptor potential vanilloid 4) (human, UniProt Q9HBA0 1-871); assay: co-IP from transfected HEK293T cells, IP anti-TRPV4, blot anti-HA
T1 construct: Endogenous TRPV4 in lysates of human HUVE or HEK293T cells, co-immunoprecipitation; also called TRPV4 membrane ion channel
Excerpt: (§1) FIG. 2A depicts a schematic representation of TRPV4. […] The right panel gives the Western blotting for the expression of each transgene in total cell lysates of respective transfectants.

β1-integrin = target: T2, β1-integrin (human, UniProt P05556 21-798); assay: co-IP from transfected HEK293T cells, IP anti-β1-integrin, blot anti-HA
T2 construct: Endogenous β1-integrin in lysates of human HUVE or HEK293T cells; No signal peptide limits are stated; also called B1-integrin; ITGB1
T2 sequence (P05556 21-798 limits assumed): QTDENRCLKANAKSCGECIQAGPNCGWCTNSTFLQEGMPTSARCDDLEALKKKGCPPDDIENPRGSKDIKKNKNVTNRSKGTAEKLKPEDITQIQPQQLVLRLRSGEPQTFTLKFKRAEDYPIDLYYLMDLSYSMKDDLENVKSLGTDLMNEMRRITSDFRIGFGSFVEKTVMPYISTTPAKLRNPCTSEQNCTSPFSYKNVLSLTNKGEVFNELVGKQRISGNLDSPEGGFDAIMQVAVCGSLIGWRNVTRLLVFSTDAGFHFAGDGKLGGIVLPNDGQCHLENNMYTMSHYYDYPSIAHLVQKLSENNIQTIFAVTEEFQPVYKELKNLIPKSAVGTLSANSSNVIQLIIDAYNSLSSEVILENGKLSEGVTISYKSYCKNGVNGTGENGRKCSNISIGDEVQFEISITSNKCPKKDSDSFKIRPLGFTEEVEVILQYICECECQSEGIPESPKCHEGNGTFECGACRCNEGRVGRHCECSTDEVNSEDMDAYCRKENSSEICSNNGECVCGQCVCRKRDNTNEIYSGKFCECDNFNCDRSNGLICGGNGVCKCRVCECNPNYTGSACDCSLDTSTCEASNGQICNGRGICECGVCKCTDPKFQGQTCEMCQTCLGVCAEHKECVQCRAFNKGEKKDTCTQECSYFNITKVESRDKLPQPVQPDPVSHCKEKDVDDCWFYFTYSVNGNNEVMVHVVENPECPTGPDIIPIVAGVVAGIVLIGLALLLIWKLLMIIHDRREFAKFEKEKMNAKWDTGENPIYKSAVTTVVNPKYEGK
Excerpt: as §1

[2] = target: T3, CD98 (cluster of differentiation 98) (human, UniProt Q01650 1-507); assay: co-IP from transfected HEK293T cells, IP anti-CD98, blot anti-myc
T3 construct: Endogenous CD98 in lysates of human HUVE or HEK293T cells; also called LAT1; transmembrane amino acid transporter CD98
T3 sequence (Q01650 whole entry): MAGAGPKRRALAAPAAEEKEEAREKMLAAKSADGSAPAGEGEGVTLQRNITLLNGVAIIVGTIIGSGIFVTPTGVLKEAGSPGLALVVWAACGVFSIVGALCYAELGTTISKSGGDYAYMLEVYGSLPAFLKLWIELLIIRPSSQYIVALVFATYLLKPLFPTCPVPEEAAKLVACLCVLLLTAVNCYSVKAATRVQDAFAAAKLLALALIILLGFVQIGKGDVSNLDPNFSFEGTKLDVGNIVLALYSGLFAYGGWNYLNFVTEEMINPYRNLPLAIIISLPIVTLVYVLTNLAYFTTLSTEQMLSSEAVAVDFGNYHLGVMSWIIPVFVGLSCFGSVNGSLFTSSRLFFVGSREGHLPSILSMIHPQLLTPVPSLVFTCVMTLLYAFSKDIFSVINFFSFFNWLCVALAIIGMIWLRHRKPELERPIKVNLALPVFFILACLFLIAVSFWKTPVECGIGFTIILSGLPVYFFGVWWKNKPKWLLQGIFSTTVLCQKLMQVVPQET
Excerpt: as §1

binding result [1]: no binding
binding result (β1-integrin): no binding
B1: HA-linked CD98 that lacks high homology domain (ΔHH) (other)
chain: MELQPPEASIAVVSIPRQLPGSHSEAGVQGLSAGDDSETGSDCVTQAGLQLLASSDPPALASKNAEVTVETGFHHVSQADIEFLTSIDPTASASGSAGITGTMSQDTEVDMKEVELNELEPEKQPMNAASGAAMSLAGAEKNGLVKIKVAEDEAEAAAACRELPAQKWWHTGALYRIGDLQAFQGHGAGNLAGLKGRLDYLSSLKVKGLVLGPIHKNQKDDVAQTDLLQIDPNFGSKEDFDSLLQSAKKKSIRVILDLTPNYRGENSWFSTQVDTVATKVKDALEFWLQAGVDGFQVRDIENLKDASSFLAEWQNITKGFSEDRLLIAGTNSSDLQQILSLLESNKDLLLTSSYLSDSGSTGEHTKSLVTQYLNATGNRWCSWSLSQARLLTSFLPAQLLRLYQLMLFTLPGTPVFSYGDEIGLDAAALPGQPMEAPVMLWDESSFPDIPGAVSANMTVKGQSEDPGSLLSLFRRLSDQRSKERSLLHGDFHAFSAGPGLFSYIRHWDQNERFLVVLNFGDVGLSAGLQASDLPASASLPAKADLLLSTQPGREEGSPLELERLKLEPHEGLLLRFPYAA
notes: Built from 'deletion of a 50 amino acid (160-210aa) high homology domain'; also called CD98 lacking the high homology domain; not shown: HA tag

binding result [2]: no binding
B2: myc-linked TRPV4 lacking all ankyrin repeat domains (ΔAR1-3) (other)
chain: MADSSEGPRAGPGEVAELPGDESGTPGGEAFPLSSLANLFEGEDGSLSPSPADASRPAGPGDGRPNLRMKFQGAFRKGVPNPIDLLESTLYESSVVPGPKKAPMDSLFDYGTYRHHSSDNKRWRKKIIEKQPQSPKAPAPQPPPILKVFNRPILFDIVSRGSTADLDGLLPFLLTHKKRLTDEEFREPSTGKTCLPKALLNLSNGRNDTIPVLLDIAERTGNMREFINSPFRDIYYQARGRFFQPKDEGGYFYMRRQDSRGNTVLHALVAIADNTRENTKFVTKMYDLLLLKCARLFPDSNLEAVLNNTRHLSRKFKDWAYGPVYSSLYDLSSLDTCGEEASVLEILVYNSKIENRHEMLAVEPINELLRDKWRKFGAVSFYINVVSYLCAMVIFTLTAYYQPLEGTPPYPYRTTVDYLRLAGEVITLFTGVLFFFTNIKDLFMKKCPGVNSLFIDGSFQLLYFIYSVLVIVSAALYLAGIEAYLAVMVFALVLGWMNALYFTRGLKLTGTYSIMIQKILFKDLFRFLLVYLLFMIGYASALVSLLNPCANMKVCNEDQTNCTVPTYPSCRDSETFSTFLLDLFKLTIGMGDLEMLSSTKYPVVFIILLVTYIILTFVLLLNMLIALMGETVGQVSKESKHIWKLQWATTILDIERSFPVFLRKAFRSGEMVTVGKSSDGTPDRRWCFRVDEVNWSHWNQNLGIINEDPGKNETYQYYGFSHTVGRLRRDRWSSVVPRVVELNKNSNPDEVVVPLDSMGNPRCDGHQQGYPRKWRTDDAPL
notes: also called TRPV4 lacking all three ankyrin repeat domains; not shown: myc tag
